Experimental data reported in article PMC4499147, “Modulation of LSD1 phosphorylation by CK2/WIP1 regulates RNF168-dependent 53BP1 recruitment in response to DNA damage” (Nucleic Acids Research, 2015).

How the values were obtained:
[1] = biological target: bacterially produced HIS-LSD1 (human, UniProt O60341 1-852); assay: pull-down; GST fusion (1 μg) with HIS-tagged fusion (1 μg) in 500 μl NETN buffer (20 mM Tris-HCl pH 8.0, 0.15 M NaCl, 1 mM EDTA, 0.5% NP-40) at 4°C overnight; Glutathione-Sepharose beads; conditions: both partners purified
[2] = biological target: T1, bacterially produced HIS-RNF168 (human, UniProt Q8IYW5 1-571); assay: as above; conditions: both partners purified
T1 construct: E3 ligase RNF168, human; the bacterial construct is not described; source: bacterially produced

B1: bacterially produced GST-53BP1-KBD (domain or fragment, human, UniProt Q12888 1234-1616, looked up)
chain: HVLHRHMRTIREVRTLVTRVITDVYYVDGTEVERKVTEETEEPIVECQECETEVSPSQTGGSSGDLGDISSFSSKASSLHRTSSGTSLSAMHSSGSSGKGAGPLRGKTSGTEPADFALPSSRGGPGKLSPRKGVSQTGTPVCEEDGDAGLGIRQGGKAPVTPRGRGRRGRPPSRTTGTRETAVPGPLGIEDISPNLSPDDKSFSRVVPRVPDSTRRTDVGAGALRRSDSPEIPFQAAAGPSDGLDASSPGNSFVGLRVVAKWSSNGYFYSGKITRDVGAGKYKLLFDDGYECDVLGKDILLCDPIPLDTEVTALSEDEYFSAGVVKGHRKESGELYYSIEKEGQRKWYKRMAVILSLEQGNRLREQYGLGPYEAVTPLTKAAD
notes: The limits 1234-1616 are printed for the 53BP1-KBD cDNA clone put into pcDNA3.0; the bacterial construct itself is not described; source: bacterially produced
Question: Which results are given for B1?
Answer: binding result [1]: binds; binding result [2]: binds
